# IntAct's records for PubMed 25860027
# B1: Ras-related protein Rab-8A (Canis familiaris (dog)), P61007 (parent)
# chain: MAKTYDYLFKLLLIGDSGVGKTCVLFRFSEDAFNSTFISTIGIDFKIRTIELDGKRIKLQIWDTAGQERFRTITTAYYRGAMGIMLVYDITNEKSFDNIRNWIRNIEEHASADVEKMILGNKCDVNDKRQVSKERGEKLALDYGIKFMETSAKANINVENAFFTLARDIKAKMDKKLEGNSPQGSNQGVKITPDQQKRSSFFRCVLL
# partner: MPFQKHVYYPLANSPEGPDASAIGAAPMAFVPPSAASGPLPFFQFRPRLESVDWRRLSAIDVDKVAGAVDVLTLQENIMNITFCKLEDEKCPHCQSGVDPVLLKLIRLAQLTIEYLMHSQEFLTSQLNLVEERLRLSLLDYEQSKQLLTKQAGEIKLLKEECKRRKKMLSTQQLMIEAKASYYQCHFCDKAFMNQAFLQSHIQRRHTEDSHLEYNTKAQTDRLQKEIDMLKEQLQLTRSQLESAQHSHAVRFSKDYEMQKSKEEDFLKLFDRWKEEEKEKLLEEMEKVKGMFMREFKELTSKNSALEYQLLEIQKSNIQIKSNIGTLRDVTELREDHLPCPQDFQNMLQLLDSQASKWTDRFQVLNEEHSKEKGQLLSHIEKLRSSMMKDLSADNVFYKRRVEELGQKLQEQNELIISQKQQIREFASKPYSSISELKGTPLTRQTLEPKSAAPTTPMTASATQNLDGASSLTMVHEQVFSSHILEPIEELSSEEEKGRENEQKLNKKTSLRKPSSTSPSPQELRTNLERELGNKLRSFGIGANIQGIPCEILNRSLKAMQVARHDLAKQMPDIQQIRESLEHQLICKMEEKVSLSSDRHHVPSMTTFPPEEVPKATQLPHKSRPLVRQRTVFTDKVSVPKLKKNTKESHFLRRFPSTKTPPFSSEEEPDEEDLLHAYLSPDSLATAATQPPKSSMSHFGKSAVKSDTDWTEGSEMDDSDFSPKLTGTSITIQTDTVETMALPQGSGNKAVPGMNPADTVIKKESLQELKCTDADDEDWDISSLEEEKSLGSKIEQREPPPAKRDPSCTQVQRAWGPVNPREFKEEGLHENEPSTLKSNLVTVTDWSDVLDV
# B2: Ras-related protein Rab-8A (Canis familiaris (dog)), P61007 (parent)
# chain: B1 chain
# partner: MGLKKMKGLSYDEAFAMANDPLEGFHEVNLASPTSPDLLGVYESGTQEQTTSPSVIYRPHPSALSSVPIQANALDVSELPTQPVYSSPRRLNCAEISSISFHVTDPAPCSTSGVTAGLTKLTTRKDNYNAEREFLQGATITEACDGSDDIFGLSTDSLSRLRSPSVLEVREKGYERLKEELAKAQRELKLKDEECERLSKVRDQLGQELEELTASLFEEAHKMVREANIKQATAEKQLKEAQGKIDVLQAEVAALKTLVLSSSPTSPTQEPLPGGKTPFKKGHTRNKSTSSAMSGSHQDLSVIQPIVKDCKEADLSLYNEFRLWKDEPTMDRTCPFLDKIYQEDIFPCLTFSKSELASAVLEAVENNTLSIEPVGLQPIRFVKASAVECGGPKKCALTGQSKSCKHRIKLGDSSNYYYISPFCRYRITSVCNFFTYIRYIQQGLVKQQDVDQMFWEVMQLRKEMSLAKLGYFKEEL
# Variants of: B1
# Settings: with Dzip1, Q8BMD2-1
row,effect of a mutation on the interaction,Variant
1,increasing interaction strength,T22N
2,disrupting interaction strength,Q67L

# Variants of: B2
# Settings: with rab3i_human RAB3IP
row,effect of a mutation on the interaction,Variant
1,increasing interaction strength,T22N
